The text below walks through data of patent publication US20230002478A1.

The target of assay [1] is SARS-CoV-2 S Trimer (SARS-CoV-2), P0DTC2. In words: SPR. The conditions noted are these: remark: other sources report otherwise.
Assay [2] concerns the target SARS-CoV-2 S1-Fc (South Africa 178-08) (SARS-CoV-2), P0DTC2. In words: SPR. The note with it: remark: other sources report otherwise.

B1: 6-63 (Fc fusion)
chain: EVQLVESGGGLVQPGGSLRLSCAASGQTFNMGWFRQAPGKEREFVAAIGSGGSTSYADSVKGRFTISADNSKNTAYLQMNSLKPEDTAVYYCWRLGNDYFDYWGQGTLVTVSS
What is called Kd is the free concentration of one partner at which half of the binding sites on the other are occupied at equilibrium, for simple one-to-one binding. In the case of B1, the dissociation constant (Kd) in assay [1] was found to be 0.68 nM; in assay [2] it was 26.8 nM.
